# ± gives the standard deviation of the averaged measurements.
# Test system: Saccharomyces cerevisiae
# Assay: protein stability index of tFT-peptide fusion (C-terminal peptide) (PSI (0-1 scale)); higher = more stable (slower turnover)
# Settings: genetic background: wild type; temperature: 30 C
# 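Further: PSI is a weighted mean of sequencing reads over stability bins, variants kept only with over 10 reads, mCherry proximal and sfGFP distal, peptide attached via GGGS linker.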
row,Sequence,protein stability index
1,PPLPPPIPLRPP,0.539 ± 0.02
2,PPLPPPLPHRPL,0.716 ± 0.078
3,PPLPPPPLLPAP,0.726 ± 0.019
4,PPLPPPPSPALL,0.75 ± 0.019
5,PPLPPPTPRPAP,0.754 ± 0.058
6,PPLPPPVYHSLP,0.6855 ± 0.0027
7,PPLPRPPLPTSL,0.649 ± 0.045
8,PPLPYPCPPVFV,0.581 ± 0.012
9,PPLRPPAPEPSP,0.659 ± 0.0092
10,PPLSHPPPPLPL,0.681 ± 0.037
11,PPLSLRPDLPVF,0.649 ± 0.0098
12,PPLSPPHRPPHS,0.71 ± 0.065
13,PPLSPSLPPSPS,0.681 ± 0.0089
14,PPLTSSVCFSLI,0.665 ± 0.098
15,PPNGAATTQDRL,0.699 ± 0.011
16,PPNPSTPSACPP,0.717 ± 0.052
17,PPPAPLPLPAST,0.645 ± 0.019
18,PPPAPLRSLSTP,0.701 ± 0.024
19,PPPAPPPPLPPR,0.688 ± 0.028
20,PPPAPRPPLSLP,0.621 ± 0.017
21,PPPAPSPLPLFP,0.7 ± 0.045
22,PPPAPTQTALPP,0.7028 ± 0.0057
23,PPPATNSLPGFE,0.672 ± 0.0099

row,Sequence,protein stability index
1,PPPAWTPPPRTA,0.7163 ± 0.001
2,PPPDHSPPPCPP,0.6857 ± 0.0037
3,PPPDSSLPLGSP,0.688 ± 0.0081
4,PPPGPLFPSFPL,0.663 ± 0.051
5,PPPGPNPPSSPS,0.758 ± 0.036
6,PPPGPRQRPPPH,0.665 ± 0.087
7,PPPHASLSHCHS,0.687 ± 0.11
8,PPPHGPPPPPLP,0.648 ± 0.055
9,PPPHHPIMPAKQ,0.63 ± 0.027
10,PPPHPPLPTFDP,0.707 ± 0.05
11,PPPHPPPLAIPP,0.767 ± 0.075
12,PPPISPRPPRRA,0.708 ± 0.0094
13,PPPLCSIPPILL,0.705 ± 0.034
14,PPPLHPPPPPPA,0.704 ± 0.037
15,PPPLLPHLLLPP,0.611 ± 0.12
16,PPPLLSHPFLPP,0.69 ± 0.057
17,PPPLPAPPFSVF,0.649 ± 0.028
18,PPPLPLPPITPT,0.53 ± 0.078
19,PPPLPPGPALPL,0.732 ± 0.012
20,PPPLPPICTRPI,0.627 ± 0.099
21,PPPLPPPILLRF,0.598 ± 0.024
22,PPPLPPPPLPGL,0.676 ± 0.0084
23,PPPLPPPSPCPL,0.702 ± 0.018

row,Sequence,protein stability index
1,PPPLPPSPLLPP,0.701 ± 0.019
2,PPPLPRPFPPFP,0.697 ± 0.019
3,PPPLPSPLPLPP,0.644 ± 0.033
4,PPPLRLPQSRLP,0.722 ± 0.09
5,PPPLSPFTTPPS,0.7493 ± 0.00077
6,PPPLSQSPPSRR,0.612 ± 0.029
7,PPPLTSPPHPPP,0.724 ± 0.029
8,PPPPAPPPAPPP,0.558 ± 0.019
9,PPPPAPYPNYYS,0.542 ± 0.0062
10,PPPPCPSYLPPS,0.693 ± 0.046
11,PPPPFAAALSTP,0.69 ± 0.039
12,PPPPFLCSPFVA,0.6905 ± 0.00081
13,PPPPGLPSSPPP,0.625 ± 0.051
14,PPPPHAPSASPP,0.668 ± 0.022
15,PPPPHSFTPSGH,0.673 ± 0.12
16,PPPPLPASHPSP,0.707 ± 0.044
17,PPPPLPHPALPP,0.675 ± 0.04
18,PPPPLPPLPGTL,0.657 ± 0.045
19,PPPPLPPPPVLT,0.7 ± 0.051
20,PPPPLPPPSPPL,0.7319 ± 0.0043
21,PPPPPAPPPLCY,0.663 ± 0.045
22,PPPPPHHRPPSS,0.709 ± 0.077
23,PPPPPHLPPLTP,0.711 ± 0.054

row,Sequence,protein stability index
1,PPPPPHPRSPLS,0.738 ± 0.037
2,PPPPPHPTSPFP,0.751 ± 0.048
3,PPPPPHVHPPSP,0.689 ± 0.042
4,PPPPPLPALPLL,0.84 ± 0.081
5,PPPPPLPPPPPP,0.593 ± 0.021
6,PPPPPLSLLLPP,0.703 ± 0.032
7,PPPPPNPIPPTF,0.713 ± 0.028
8,PPPPPPLLPPPA,0.7302 ± 0.0037
9,PPPPPPLPAPPH,0.693 ± 0.029
10,PPPPPPPFCLAP,0.718 ± 0.0079
11,PPPPPPPHSSLS,0.709 ± 0.0078
12,PPPPPPPLAPPL,0.685 ± 0.021
13,PPPPPPPLPHPP,0.595 ± 0.058
14,PPPPPPPLRFIF,0.618 ± 0.035
15,PPPPPPPPFSHS,0.712 ± 0.022
16,PPPPPPPPLPAP,0.664 ± 0.018
17,PPPPPPPPPLLP,0.7031 ± 0.006
18,PPPPPPPPPSTP,0.744 ± 0.016
19,PPPPPPPPRRPP,0.595 ± 0.047
20,PPPPPPPRGPPR,0.627 ± 0.014
21,PPPPPPPRPLTP,0.68 ± 0.059
22,PPPPPPPSPPFS,0.783 ± 0.031
23,PPPPPPPSSPPP,0.732 ± 0.012

row,Sequence,protein stability index
1,PPPPPPQTPRPR,0.683 ± 0.061
2,PPPPPPSPLPPY,0.703 ± 0.01
3,PPPPPPSPPRLP,0.592 ± 0.03
4,PPPPPPTPPSLS,0.7449 ± 0.001
5,PPPPPRPRSLLS,0.711 ± 0.063
6,PPPPPSSRPLSN,0.627 ± 0.079
7,PPPPPTPPPARP,0.695 ± 0.054
8,PPPPPVLPNRIP,0.781 ± 0.04
9,PPPPQPTAPPNP,0.717 ± 0.049
10,PPPPSLLPLSLP,0.608 ± 0.02
11,PPPPSPPLTRSL,0.783 ± 0.08
12,PPPPTLPPPPLS,0.722 ± 0.14
13,PPPPTTATRQQT,0.691 ± 0.016
14,PPPQLRPLPQSL,0.704 ± 0.018
15,PPPQYILPPRFP,0.691 ± 0.017
16,PPPRPCRAPAAA,0.668 ± 0.089
17,PPPRPGLPAPVP,0.683 ± 0.05
18,PPPRPLPVLFLP,0.611 ± 0.06
19,PPPRPPHAPFSL,0.702 ± 0.039
20,PPPRPPHGPLPY,0.658 ± 0.037
21,PPPRPPPPSCPP,0.685 ± 0.092
22,PPPRPPRPPLPS,0.727 ± 0.02
23,PPPRPTPAPPRV,0.65 ± 0.032

row,Sequence,protein stability index
1,PPPRSPLFSLPP,0.678 ± 0.032
2,PPPSALPPLPQP,0.712 ± 0.01
3,PPPSCPPPPSRS,0.7754 ± 0.0068
4,PPPSHSLPSLPI,0.626 ± 0.033
5,PPPSLPPLPSPS,0.725 ± 0.027
6,PPPSLPPPSATA,0.689 ± 0.087
7,PPPSLSPAPAPP,0.736 ± 0.027
8,PPPSPCHPPSPP,0.67 ± 0.12
9,PPPSPPDCLPLP,0.649 ± 0.086
10,PPPSPPLPRHLA,0.746 ± 0.06
11,PPPSPPSVPRAS,0.643 ± 0.027
12,PPPSRPPQLHPA,0.605 ± 0.021
13,PPPSSPPTHLTS,0.678 ± 0.012
14,PPPSSPTPPHSR,0.738 ± 0.082
15,PPPSTRSNPGLD,0.745 ± 0.028
16,PPPSVPPSLTPP,0.693 ± 0.03
17,PPPTHPTSTSSI,0.699 ± 0.02
18,PPPTLPPPSPFP,0.705 ± 0.038
19,PPPTPKITPMSI,0.6871 ± 0.0018
20,PPPTPPSRILPA,0.699 ± 0.016
21,PPPTPRPAFLPP,0.6969 ± 0.0037
22,PPPTPSDPQNSS,0.644 ± 0.007
23,PPPWSFPCPSAS,0.778 ± 0.084

row,Sequence,protein stability index
1,PPPYPRSTPFVP,0.6774 ± 0.005
2,PPQALPHSSKQA,0.6931 ± 0.0025
3,PPRLHAPPPSPP,0.716 ± 0.016
4,PPRPLLPTPSPL,0.7 ± 0.056
5,PPRPLPARRLSF,0.753 ± 0.081
6,PPRPLPPPPPPT,0.716 ± 0.017
7,PPRPPPSPPLPP,0.696 ± 0.062
8,PPRPPSPPPPSP,0.632 ± 0.02
9,PPRPRPPSSPST,0.641 ± 0.0099
10,PPRPSPPPLPPS,0.683 ± 0.051
11,PPRRAPPPIRLP,0.746 ± 0.074
12,PPRSFLPPRFSW,0.702 ± 0.066
13,PPRSFPGTPLIA,0.67 ± 0.069
14,PPRSLPPPTSPL,0.731 ± 0.011
15,PPRTPFSLPPPA,0.73 ± 0.054
16,PPRTSPRLLPPP,0.686 ± 0.0069
17,PPRVFGFFPFPP,0.774 ± 0.079
18,PPSAPLPTLLHH,0.722 ± 0.094
19,PPSAPPLPPLPL,0.69 ± 0.014
20,PPSFLLVCPRPP,0.6897 ± 0.0068
21,PPSHGRSSQSPR,0.731 ± 0.1
22,PPSLAPPPTSRP,0.679 ± 0.054

# From the supplement of paper PMC10724198
